Patent publication US11098109B2, “Single-chain variable fragment anti-CD133 antibodies and uses thereof” (REGENTS OF THE UNIVERSITY OF MINNESOTA, priority 2010, dated 2021)

Legend:
[1] = biological target: T1, CD133 (Homo sapiens, UniProt O43490); test: Tunicamycin glycosylation inhibition, Western blot of Caco-2 lysates; format: binding; conditions: Caco-2 cells treated with tunicamycin
T1 construct: endogenous in cells
T1 sequence (O43490 20-865): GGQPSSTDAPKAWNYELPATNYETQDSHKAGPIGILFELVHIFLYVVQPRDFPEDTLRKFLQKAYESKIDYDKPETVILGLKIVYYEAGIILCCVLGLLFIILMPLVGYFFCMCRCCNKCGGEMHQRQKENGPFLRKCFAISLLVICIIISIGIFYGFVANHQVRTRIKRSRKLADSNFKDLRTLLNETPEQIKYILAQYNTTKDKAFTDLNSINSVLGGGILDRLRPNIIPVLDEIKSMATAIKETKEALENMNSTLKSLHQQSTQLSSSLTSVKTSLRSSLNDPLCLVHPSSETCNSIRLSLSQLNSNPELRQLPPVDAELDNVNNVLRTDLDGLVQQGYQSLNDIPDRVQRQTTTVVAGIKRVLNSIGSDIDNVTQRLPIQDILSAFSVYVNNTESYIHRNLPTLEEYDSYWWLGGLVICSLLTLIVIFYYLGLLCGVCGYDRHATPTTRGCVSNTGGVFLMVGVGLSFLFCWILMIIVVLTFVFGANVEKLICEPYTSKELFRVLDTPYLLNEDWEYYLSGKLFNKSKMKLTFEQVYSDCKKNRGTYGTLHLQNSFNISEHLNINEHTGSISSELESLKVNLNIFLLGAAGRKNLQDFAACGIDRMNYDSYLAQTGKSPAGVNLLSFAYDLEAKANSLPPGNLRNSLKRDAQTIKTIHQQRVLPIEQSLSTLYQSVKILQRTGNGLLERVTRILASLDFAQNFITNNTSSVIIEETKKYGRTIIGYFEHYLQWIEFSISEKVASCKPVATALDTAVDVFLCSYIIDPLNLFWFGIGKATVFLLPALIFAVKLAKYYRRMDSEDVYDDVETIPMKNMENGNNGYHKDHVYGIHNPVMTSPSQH
Protocol: FIG. 3: Specificity of antibody produced by Hybridoma Clone 7. (A) Flow cytometry. Cells were incubated with primary antibody from either Hybridoma Clone 7 or 293C3 (Militenyi), followed by incubation with a labeled secondary antibody, and then analyzed by flow cytometry. Antibody from the newly developed anti-CD133 Hybridoma Clone 7 (open black histogram) stains very specifically the CD133-overexpressing cells, Caco-2 (iii), GBM6 (iv) and U87 cells transfected with CD133 (ii) but not CD133 negative U87 cells (i). Immunostaining using the monoclonal antibody produced by Hybridoma Clone 7 is compared to clone 293C3 (open grey histogram). Isotype control is represented by solid grey histogram. (B) Tunicamycin mediated glycosylation inhibition. Caco-2 cells were treated with increasing doses of tunicamycin (2.5, 5, 10, 20 μg/ml) for 3 days. DMSO treated cells or untreated cells served as controls. Cells were lysed and then analyzed by Western blotting using the monoclonal antibody produced by Hybridoma Clone 7 or GAPDH antibodies.
Caco-2 cells were seeded in 6-well plates and treated with 2.5 μg/ml-20 μg/ml tunicarmycin or vehicle (medium containing 0.1% DMSO) for three days. […] The lysates were centrifuged to remove cell debris and then analyzed by western blotting using either Hybridoma Clone 7 or anti-GAPDH (Sigma-Aldrich Corp., St. Louis, Mo.) as primary antibodies.

[2] = biological target: T2, human prominin-1 (Homo sapiens, UniProt O43490, DEL381-611); test: ELISA of hybridoma supernatant on recombinant C-prominin-1; format: binding; conditions: supernatant at 1:1, 1:10, 1:100, 1:500 dilution
T2 construct: His-tag (6xHis) (N); made in house
T2 sequence (O43490 with tags, fused parts or gaps DEL381-611): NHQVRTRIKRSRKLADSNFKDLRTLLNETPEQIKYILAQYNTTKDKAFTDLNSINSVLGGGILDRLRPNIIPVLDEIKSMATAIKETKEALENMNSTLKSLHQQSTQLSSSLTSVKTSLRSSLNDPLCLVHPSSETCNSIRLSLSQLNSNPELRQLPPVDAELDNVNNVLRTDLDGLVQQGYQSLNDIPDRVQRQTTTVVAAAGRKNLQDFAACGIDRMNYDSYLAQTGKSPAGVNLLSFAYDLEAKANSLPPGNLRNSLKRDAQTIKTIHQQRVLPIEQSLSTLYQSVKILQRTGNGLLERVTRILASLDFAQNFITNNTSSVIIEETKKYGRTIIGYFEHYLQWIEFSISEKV
Protocol: The hybridoma cells were cultured in DMEM with 10% FBS. When the cells were confluent, they were grown for additional 2-3 days. The supernatant was harvested for ELISA. The recombinant C-prominin-1 protein was coated at a 1:1000 dilution in 96-well plate and incubated at 4° C. ovemight. The coating buffer was discarded, the protein was washed 1 time, 300 μl/well of 5% milk buffer was added, and incubated at 4° C. overnight.
The hybridoma supernatant was diluted with 5% milk buffer at 1:1, 1:10, 1:100, 1:500 and 50 μL/well was added and incubated at 37° C. for one hour. The wells were washed four times, and 50 μL/well goat anti-mouse secondary antibody-HOURP conjugate was added at a dilution of 1:2000 and incubated at 37° C. for one hour. Washed four times, and added 50 μL/well substrate.

B1: Hybridoma Clone 7: monoclonal antibody produced by Hybridoma Clone 7 that specifically binds to human CD133 (antibody, V domains shown)
VL: DIVLSQSPAIMSASPGEKVTISCSASSSVSYMYWYQQKPGSSPKPWIYRTSNLASGVPARFSGSGSGTSYSLTISSMEAEDAATYYCQQYHSYPPTFGAGTKLELK
VH: LEVKLVESGPELKKPGETVKISCKASGYTFTDYSMHWVNQAPGKGLKWMGWINTETGEPSYADDFKGRFAFSLETSASTAYLQINNLKNEDTATYFCATDYGDYFDYWGQGTTLTVSS
In the case of B1, the “epitope recognized (glycosylated or not)” value [1] is reported as “specifically binds to an non-glycosylated epitope” and the “reaction of supernatant with human prominin-1 in ELISA” value [2] is reported as “binds its antigen with high specificity and affinity”.
